The record followed here is the supplement of paper PMC7877785.

The data set is described as follows: self-splicing fitness, log relative to wild type (ln ratio); higher = more splicing; Tetrahymena group I intron in knt gene, E. coli kanamycin selection, DiMSum; sequences stand for … in CUCUCU…GGAGGGAAAAGUUAUCAGGCAUGCACCUGGUAGCUAGUCUUUAAACCAAUAGAUUGCAUCGGUUUAAAAGGCAAGACCGUCAAAUUGCGGGAAAGGGGUCAACAGCCGUUCAGUACCAAGUCUCAGGGGAAACUUUGAGAUGGCCUUGCAAAGGGUAUGGUAAUAAGCUGACGGACAUGGUCCUAACCACGCAGCCAAGUCCUAAGUCAACAGAUCUUCUGUUGAUAUGGAUGCAGUUCACAGACUAAAUGUCGGUCGGGGAAGAUGUAUUCUUCUCAUAAGAUAUAGUCGGACCUCUCCUUAAUGGGAGCUAGCGGAUGAAGUGAUGCAACACUGGAGCCGCUGGGAACUAAUUUGUAUGCGAAAGUAUAUUGAUUAGUUUUGGAGUACUCGUGGUCG
A digest of the protocol: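 A randomised library covering all eight P1ex-region intron nucleotides was built with the intron in the knt kanamycin-resistance gene on pET-22b(+) and held in E. coli BL21(DE3). Cells were grown overnight at 37°C or 30°C on LB agar, with or without 25 μg/mL kanamycin, plus 100 μg/mL carbenicillin, 50 μM IPTG and 0.2% rhamnose, and pooled colonies were amplicon-sequenced on an Illumina HiSeq 2500. DiMSum fitness is the error-weighted combination of wild-type-normalised replicate fold changes, kanamycin versus none.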

± gives the uncertainty stated by the source.

As for GUAGAGCAAUAUUACGCUCU, the “self-splicing fitness (ln)” value (30 °C) was -3.31 ± 0.43.
Regarding GUAGAGCAAUAUUACGGACG, the “self-splicing fitness (ln)” value runs as follows: (30 °C) -2.8 ± 0.36; (37 °C) -1 ± 0.3.
Consider GUAGAGCAAUAUUACGGAGG, for which the “self-splicing fitness (ln)” value (37 °C) was -1.69 ± 0.43.
Take GUAGAGCAAUAUUACGGGGG: the “self-splicing fitness (ln)” value runs as follows: (30 °C) -2.82 ± 0.26; (37 °C) -2.22 ± 0.3.
Consider GUAGAGCAAUAUUACGGUAG, for which the “self-splicing fitness (ln)” value runs as follows: (30 °C) -2.36 ± 0.12; (37 °C) -1.24 ± 0.13.
In the same order, the values of GUAGAGCAAUAUUACGUAGA are -4.79 ± 0.41 and -1.55 ± 0.25.
Regarding GUAGAGCAAUAUUACGUGAA, the “self-splicing fitness (ln)” value by setting is: (30 °C) -1.86 ± 0.17; (37 °C) -1.87 ± 0.2.
With GUAUAGCAAUAUUACGAAGU, the “self-splicing fitness (ln)” value is, setting by setting: (30 °C) -3.25 ± 0.21; (37 °C) -1.81 ± 0.18.
GUAUAGCAAUAUUACGAAUC: the “self-splicing fitness (ln)” value runs as follows: (30 °C) -2.37 ± 0.22; (37 °C) -0.29 ± 0.17.
In the same order, the values of GUAUAGCAAUAUUACGACUU are -0.268 ± 0.072 and -0.0307 ± 0.085.
On the same counts, the results for GUAUAGCAAUAUUACGAGUA are -1.18 ± 0.19 and -1.77 ± 0.22.
For GUAUAGCAAUAUUACGAGUG, the “self-splicing fitness (ln)” value (30 °C) is -2.23 ± 0.15 and the “self-splicing fitness (ln)” value (37 °C) was -2.47 ± 0.22.
In the same order, the values of GUAUAGCAAUAUUACGAUCG are -1.69 ± 0.33 and -0.878 ± 0.31.
On the same counts, the results for GUAUAGCAAUAUUACGCAUU are -2 ± 0.17 and -2.28 ± 0.29.
On the same counts, the results for GUAUAGCAAUAUUACGCUGG are -2.35 ± 0.17 and -1.01 ± 0.18.
For GUAUAGCAAUAUUACGGGCG, the “self-splicing fitness (ln)” value was -2.27 ± 0.17 (30 °C) and -0.207 ± 0.18 (37 °C).
On to GUAUAGCAAUAUUACGGGCU, for which the “self-splicing fitness (ln)” value runs as follows: (30 °C) -2.86 ± 0.17; (37 °C) -1.38 ± 0.19.
On the same counts, the results for GUAUAGCAAUAUUACGGGUU are -3.05 ± 0.29 and -2.07 ± 0.27.
As for GUAUAGCAAUAUUACGGUGA, the “self-splicing fitness (ln)” value was -2.53 ± 0.25 (30 °C) and -0.645 ± 0.18 (37 °C).
On the same counts, the results for GUAUAGCAAUAUUACGUAGG are -3.15 ± 0.16 and -1.47 ± 0.14.
In the same order, the values of GUAUAGCAAUAUUACGUAGU are -2.17 ± 0.096 and -1.26 ± 0.095.
On the same counts, the results for GUAUAGCAAUAUUACGUCAG are -3.96 ± 0.35 and -1.08 ± 0.18.
As for GUAUAGCAAUAUUACGUGGC, the “self-splicing fitness (ln)” value was -3.62 ± 0.33 (30 °C) and -2.09 ± 0.28 (37 °C).
In the same order, the values of GUAUAGCAAUAUUACGUGUA are -1.79 ± 0.2 and -1.92 ± 0.18.
In the case of GUAUAGCAAUAUUACGUUGA, the “self-splicing fitness (ln)” value (30 °C) was -2.87 ± 0.21 and the “self-splicing fitness (ln)” value (37 °C) is -1.41 ± 0.18.
On the same counts, the results for GUCAAGCAAUAUUACGAAAA are -1.95 ± 0.41 and -2.53 ± 0.31.
Turning to GUCAAGCAAUAUUACGAACC, for the setting “30 °C”, the “self-splicing fitness (ln)” value is -3.76 ± 0.42.
Consider GUCAAGCAAUAUUACGAAUU, for which the “self-splicing fitness (ln)” value is -3.06 ± 0.18 (30 °C) and -1.82 ± 0.17 (37 °C).
On the same counts, the results for GUCAAGCAAUAUUACGACGG are -4.06 ± 0.37 and -1.71 ± 0.34.
Regarding GUCAAGCAAUAUUACGAGCG, the “self-splicing fitness (ln)” value (30 °C) was -2.72 ± 0.16 and the “self-splicing fitness (ln)” value (37 °C) is -1.2 ± 0.18.
On the same counts, the results for GUCAAGCAAUAUUACGAGUA are -3.43 ± 0.19 and -1.98 ± 0.15.
In the same order, the values of GUCAAGCAAUAUUACGAUCG are -3.39 ± 0.19 and -2.88 ± 0.23.
Consider GUCAAGCAAUAUUACGAUGU, for which the “self-splicing fitness (ln)” value by setting is: (30 °C) -1.75 ± 0.042; (37 °C) -0.404 ± 0.055.
Turning to GUCAAGCAAUAUUACGCAGG, the “self-splicing fitness (ln)” value is, setting by setting: (30 °C) -4.19 ± 0.36; (37 °C) -2.3 ± 0.3.
On the same counts, the results for GUCAAGCAAUAUUACGCCCA are -1.4 ± 0.15 and -1.11 ± 0.14.
With GUCAAGCAAUAUUACGCCGG, the “self-splicing fitness (ln)” value (37 °C) was -0.94 ± 0.36.
GUCAAGCAAUAUUACGCUAU: the “self-splicing fitness (ln)” value runs as follows: (30 °C) -4.05 ± 0.17; (37 °C) -3.81 ± 0.15.
For GUCAAGCAAUAUUACGCUGC, the “self-splicing fitness (ln)” value (37 °C) was -3.33 ± 0.27.
Regarding GUCAAGCAAUAUUACGGAAG, the “self-splicing fitness (ln)” value is -3.05 ± 0.15 (30 °C) and -1.68 ± 0.17 (37 °C).
